Reference: the supplement of paper PMC10065799, “High-throughput profiling of sequence recognition by tyrosine kinases and SH2 domains using bacterial peptide display” (eLife, 2023)

Tests used:
AncSZ = assay: phosphorylation enrichment, bacterial display (enrichment ratio); higher = better substrate or ligand; peptides without Tyr show the background
EPHB1 = EPHB1 (UniProt P54762); assay: as above
EPHB2 = EPHB2 (UniProt P29323); assay: as above
FGFR1 = FGFR1 (UniProt P11362); assay: as above
FGFR3 = FGFR3 (UniProt P22607); assay: as above
Sequence of FGFR3 (P22607 whole entry, looked up): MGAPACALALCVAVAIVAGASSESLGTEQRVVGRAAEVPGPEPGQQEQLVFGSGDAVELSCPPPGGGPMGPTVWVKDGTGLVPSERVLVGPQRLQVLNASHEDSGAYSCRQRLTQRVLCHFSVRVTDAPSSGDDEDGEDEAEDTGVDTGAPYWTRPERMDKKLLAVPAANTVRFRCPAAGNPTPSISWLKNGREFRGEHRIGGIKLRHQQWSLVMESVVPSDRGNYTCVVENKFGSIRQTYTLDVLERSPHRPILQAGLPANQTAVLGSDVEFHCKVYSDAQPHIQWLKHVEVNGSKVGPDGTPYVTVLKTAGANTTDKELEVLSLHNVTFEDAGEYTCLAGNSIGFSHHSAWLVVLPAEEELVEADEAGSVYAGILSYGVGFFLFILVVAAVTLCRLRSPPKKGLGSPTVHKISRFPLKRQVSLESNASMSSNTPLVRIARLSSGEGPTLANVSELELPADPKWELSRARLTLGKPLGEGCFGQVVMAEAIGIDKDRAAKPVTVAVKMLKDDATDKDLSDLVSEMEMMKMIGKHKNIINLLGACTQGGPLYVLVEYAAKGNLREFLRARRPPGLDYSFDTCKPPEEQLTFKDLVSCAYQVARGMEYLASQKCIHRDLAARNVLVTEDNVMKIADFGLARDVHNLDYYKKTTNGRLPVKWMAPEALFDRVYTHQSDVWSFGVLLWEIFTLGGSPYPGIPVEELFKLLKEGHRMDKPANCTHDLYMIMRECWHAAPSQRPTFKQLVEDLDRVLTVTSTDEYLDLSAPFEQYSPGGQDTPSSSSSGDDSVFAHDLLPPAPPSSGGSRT

Fer (mouse) = assay: as above
Fes = Fes (UniProt P07332); assay: as above
Sequence of Fes (P07332 whole entry, looked up): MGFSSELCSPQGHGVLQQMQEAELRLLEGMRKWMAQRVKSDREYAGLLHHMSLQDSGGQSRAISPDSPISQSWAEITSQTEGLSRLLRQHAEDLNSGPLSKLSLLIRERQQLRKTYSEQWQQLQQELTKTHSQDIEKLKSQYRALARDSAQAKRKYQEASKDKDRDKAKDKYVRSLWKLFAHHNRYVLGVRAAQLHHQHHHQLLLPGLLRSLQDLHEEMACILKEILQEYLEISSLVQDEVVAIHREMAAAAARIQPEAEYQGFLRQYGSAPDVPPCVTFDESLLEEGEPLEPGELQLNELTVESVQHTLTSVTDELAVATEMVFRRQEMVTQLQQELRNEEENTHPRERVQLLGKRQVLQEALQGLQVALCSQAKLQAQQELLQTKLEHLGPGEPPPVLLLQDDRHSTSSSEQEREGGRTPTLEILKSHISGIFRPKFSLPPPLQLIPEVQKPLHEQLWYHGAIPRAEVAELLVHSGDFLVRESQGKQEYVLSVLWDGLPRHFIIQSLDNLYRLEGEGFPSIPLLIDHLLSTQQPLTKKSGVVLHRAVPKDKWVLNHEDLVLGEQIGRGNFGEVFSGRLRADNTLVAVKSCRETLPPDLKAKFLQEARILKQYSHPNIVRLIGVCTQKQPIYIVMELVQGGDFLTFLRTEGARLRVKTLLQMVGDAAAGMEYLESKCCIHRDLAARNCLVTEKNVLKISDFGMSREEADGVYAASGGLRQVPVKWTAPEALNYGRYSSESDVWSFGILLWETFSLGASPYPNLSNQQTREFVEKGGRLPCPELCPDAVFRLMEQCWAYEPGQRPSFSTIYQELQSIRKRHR

Fyn = Fyn (UniProt P06241); assay: as above
Sequence of Fyn (P06241 whole entry, looked up): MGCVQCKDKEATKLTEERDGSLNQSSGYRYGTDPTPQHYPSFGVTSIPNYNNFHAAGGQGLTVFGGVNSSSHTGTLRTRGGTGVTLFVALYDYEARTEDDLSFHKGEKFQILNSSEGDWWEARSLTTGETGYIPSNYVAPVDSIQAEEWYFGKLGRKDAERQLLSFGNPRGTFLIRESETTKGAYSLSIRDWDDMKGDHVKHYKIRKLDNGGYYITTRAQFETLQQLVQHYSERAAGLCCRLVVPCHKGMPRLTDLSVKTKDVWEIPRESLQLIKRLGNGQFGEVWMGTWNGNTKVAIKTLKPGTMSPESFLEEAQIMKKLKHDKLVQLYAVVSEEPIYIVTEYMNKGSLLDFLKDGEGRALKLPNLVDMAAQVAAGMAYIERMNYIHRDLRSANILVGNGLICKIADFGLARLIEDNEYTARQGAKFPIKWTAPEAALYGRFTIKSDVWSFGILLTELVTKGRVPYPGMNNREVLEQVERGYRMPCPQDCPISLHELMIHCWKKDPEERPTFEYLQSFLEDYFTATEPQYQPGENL

Hck = Hck (UniProt P08631); assay: as above
Sequence of Hck (P08631 whole entry, looked up): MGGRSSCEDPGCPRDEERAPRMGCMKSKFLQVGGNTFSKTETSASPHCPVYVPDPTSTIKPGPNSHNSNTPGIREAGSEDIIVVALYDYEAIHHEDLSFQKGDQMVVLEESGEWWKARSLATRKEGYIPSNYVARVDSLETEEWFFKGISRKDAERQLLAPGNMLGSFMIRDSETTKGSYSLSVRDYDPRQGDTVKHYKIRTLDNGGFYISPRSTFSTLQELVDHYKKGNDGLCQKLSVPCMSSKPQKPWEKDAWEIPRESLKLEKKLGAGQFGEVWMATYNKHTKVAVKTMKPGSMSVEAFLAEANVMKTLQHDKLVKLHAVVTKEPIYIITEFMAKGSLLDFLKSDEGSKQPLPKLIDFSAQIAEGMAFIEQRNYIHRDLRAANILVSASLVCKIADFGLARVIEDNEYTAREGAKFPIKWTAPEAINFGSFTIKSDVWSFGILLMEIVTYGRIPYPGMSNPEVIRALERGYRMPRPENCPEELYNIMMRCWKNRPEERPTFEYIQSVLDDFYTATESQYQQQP

Jak2 = Jak2 (UniProt O60674); assay: as above
Sequence of Jak2 (O60674 whole entry, looked up): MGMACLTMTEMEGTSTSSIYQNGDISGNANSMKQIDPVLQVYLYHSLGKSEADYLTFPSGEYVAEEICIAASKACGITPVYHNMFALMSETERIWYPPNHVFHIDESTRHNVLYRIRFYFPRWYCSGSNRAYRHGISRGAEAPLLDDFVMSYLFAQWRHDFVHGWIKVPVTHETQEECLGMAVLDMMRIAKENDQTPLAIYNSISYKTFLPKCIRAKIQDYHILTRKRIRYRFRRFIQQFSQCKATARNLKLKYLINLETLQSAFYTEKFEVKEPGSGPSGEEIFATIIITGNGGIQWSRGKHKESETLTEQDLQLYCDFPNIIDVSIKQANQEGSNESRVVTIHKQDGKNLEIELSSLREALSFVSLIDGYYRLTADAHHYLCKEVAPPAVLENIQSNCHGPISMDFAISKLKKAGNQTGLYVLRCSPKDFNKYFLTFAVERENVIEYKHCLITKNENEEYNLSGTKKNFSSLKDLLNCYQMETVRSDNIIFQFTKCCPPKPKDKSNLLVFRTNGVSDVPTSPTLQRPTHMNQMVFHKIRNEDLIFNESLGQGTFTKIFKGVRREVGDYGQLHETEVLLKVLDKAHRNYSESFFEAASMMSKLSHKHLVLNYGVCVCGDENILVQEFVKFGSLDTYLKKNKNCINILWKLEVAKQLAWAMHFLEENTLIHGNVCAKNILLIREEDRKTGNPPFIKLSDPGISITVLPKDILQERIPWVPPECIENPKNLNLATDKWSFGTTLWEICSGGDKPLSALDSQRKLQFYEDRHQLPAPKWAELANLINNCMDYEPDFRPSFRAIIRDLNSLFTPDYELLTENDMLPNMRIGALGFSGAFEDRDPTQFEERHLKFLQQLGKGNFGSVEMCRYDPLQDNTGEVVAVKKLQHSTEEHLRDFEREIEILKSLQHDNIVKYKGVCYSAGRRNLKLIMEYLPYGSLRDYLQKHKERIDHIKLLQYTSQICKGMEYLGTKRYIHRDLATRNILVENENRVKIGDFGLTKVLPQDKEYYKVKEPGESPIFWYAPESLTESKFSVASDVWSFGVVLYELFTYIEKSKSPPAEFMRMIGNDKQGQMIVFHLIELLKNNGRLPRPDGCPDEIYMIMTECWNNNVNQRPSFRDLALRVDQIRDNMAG

MERTK = MERTK (UniProt Q12866); assay: as above
c-Abl (mouse) = assay: as above
c-Src = assay: as above
Grb2 SH2 = Grb2 SH2 (UniProt P62993); assay: SH2 binding enrichment of the phosphorylated peptide, bacterial display (enrichment ratio); higher = better substrate or ligand; peptides without Tyr show the background
SHP2-C SH2 = assay: as above
c-Src SH2 = assay: as above
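Wherever SH2 binding enrichment of the phosphorylated peptide, bacterial display is given: peptide library displayed on the E. coli surface as eCPX fusions, selected cells deep-sequenced, score is each peptide's frequency after selection divided by its frequency in the input.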
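Wherever phosphorylation enrichment, bacterial display is given: 11-residue human phosphosite peptides and single-mutation variants displayed on the E. coli surface, counted by deep sequencing, each peptide's frequency after selection divided by its frequency in the unselected input library; frequency after pTyr selection over input frequency; kinase dosed for 20-30% of maximal phosphorylation in three min.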

Sequence of EPHB2 (P29323 whole entry, looked up): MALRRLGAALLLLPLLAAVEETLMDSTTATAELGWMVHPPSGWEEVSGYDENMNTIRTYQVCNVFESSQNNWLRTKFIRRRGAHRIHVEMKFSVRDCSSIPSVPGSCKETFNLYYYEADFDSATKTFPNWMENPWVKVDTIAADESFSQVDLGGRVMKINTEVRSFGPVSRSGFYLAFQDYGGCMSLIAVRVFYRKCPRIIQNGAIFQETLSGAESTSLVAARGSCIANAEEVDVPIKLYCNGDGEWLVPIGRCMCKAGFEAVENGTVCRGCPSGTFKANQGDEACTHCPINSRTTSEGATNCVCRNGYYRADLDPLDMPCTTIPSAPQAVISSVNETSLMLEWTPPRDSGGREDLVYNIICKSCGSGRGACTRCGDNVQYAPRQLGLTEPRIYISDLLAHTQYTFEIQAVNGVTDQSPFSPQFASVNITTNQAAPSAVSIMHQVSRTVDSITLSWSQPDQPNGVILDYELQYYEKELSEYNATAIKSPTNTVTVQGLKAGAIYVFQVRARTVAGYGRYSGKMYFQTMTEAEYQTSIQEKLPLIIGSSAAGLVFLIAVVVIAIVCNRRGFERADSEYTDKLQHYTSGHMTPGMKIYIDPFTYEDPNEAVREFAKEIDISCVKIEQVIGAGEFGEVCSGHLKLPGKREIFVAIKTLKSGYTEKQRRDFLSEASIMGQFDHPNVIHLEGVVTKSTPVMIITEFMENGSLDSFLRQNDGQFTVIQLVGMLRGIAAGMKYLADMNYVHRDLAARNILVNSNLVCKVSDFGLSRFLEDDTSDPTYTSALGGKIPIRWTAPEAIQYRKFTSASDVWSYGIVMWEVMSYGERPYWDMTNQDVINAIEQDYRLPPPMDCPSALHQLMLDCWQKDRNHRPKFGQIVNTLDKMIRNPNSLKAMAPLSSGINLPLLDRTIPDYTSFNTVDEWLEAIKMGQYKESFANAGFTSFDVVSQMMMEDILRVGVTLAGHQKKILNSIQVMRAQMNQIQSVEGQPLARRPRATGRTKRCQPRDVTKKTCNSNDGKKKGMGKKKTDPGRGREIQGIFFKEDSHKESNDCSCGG

Sequence | SH2 binding enrichment (Grb2 SH2) | SH2 binding enrichment (SHP2-C SH2) | SH2 binding enrichment (c-Src SH2) | phosphorylation enrichment (AncSZ) | phosphorylation enrichment (EPHB1) | phosphorylation enrichment (EPHB2) | phosphorylation enrichment (FGFR1) | phosphorylation enrichment (FGFR3) | phosphorylation enrichment (Fer (mouse)) | phosphorylation enrichment (Fes) | phosphorylation enrichment (Fyn) | phosphorylation enrichment (Hck) | phosphorylation enrichment (Jak2) | phosphorylation enrichment (MERTK) | phosphorylation enrichment (c-Abl (mouse)) | phosphorylation enrichment (c-Src)
FETDFYRKGGK [INSR_Y1190_YF] | 0.875 | 0.776 | 0.502 | 0.629 | 0.621 | 0.639 | 0.435 | 0.472 | 0.319 | 0.758 | 0.381 | 0.418 | 0.6 | 0.468 | 0.539 | 0.482
GPGLVYRVANK [FLNB_Y1833_G1834R] | 0.999 | 0.722 | 0.499 | 0.785 | 0.471 | 0.436 | 0.515 | 0.597 | 0.445 | 0.793 | 0.485 | 0.498 | 0.688 | 0.399 | 0.716 | 0.541
PTTMTYFPHFD [HBA1_Y43_K41M] | 1.13 | 0.782 | 0.658 | 0.823 | 0.603 | 0.577 | 2.97 | 2.32 | 0.521 | 1.01 | 0.554 | 0.951 | 1.61 | 0.802 | 0.859 | 0.754
KLKPIYFHTQG [AR_Y916_V912L] | 1.78 | 2.12 | 1.95 | 0.602 | 0.393 | 0.503 | 0.511 | 0.525 | 0.312 | 0.671 | 0.349 | 0.364 | 0.513 | 0.4 | 0.568 | 0.523
ITNLLYHVVGG [GBA_Y412_W417G] | 1.07 | 1.12 | 0.953 | 1.18 | 5.68 | 3.36 | 6.43 | 5.48 | 1.32 | 1.12 | 5.17 | 5.76 | 2.67 | 7.37 | 1.12 | 3.81
HSGLAYTMERS [GLUD1_Y512] | 0.698 | 0.733 | 0.314 | 0.933 | 0.897 | 0.495 | 0.403 | 0.543 | 0.561 | 1.26 | 0.685 | 0.383 | 0.985 | 0.521 | 0.56 | 0.763
SVVVPYEPPDV [TP53_Y220_E224D] | 0.89 | 0.73 | 0.735 | 0.984 | 0.554 | 0.528 | 0.524 | 0.612 | 0.456 | 0.932 | 0.429 | 0.447 | 0.752 | 0.337 | 0.603 | 0.415
KANEFYPVVII [ADAMTS18_Y765_L769I_YF] | 0.626 | 0.597 | 0.349 | 1.03 | 0.411 | 0.695 | 1.9 | 1.26 | 0.456 | 1.16 | 0.458 | 0.458 | 1.06 | 0.386 | 0.663 | 0.478
DKNSSYFADWL [TUBB8_Y340] | 0.99 | 0.853 | 0.766 | 1.13 | 0.573 | 0.53 | 1.51 | 1.38 | 0.564 | 1.09 | 0.584 | 0.492 | 1.39 | 1.15 | 0.746 | 0.512
DEDFLYREELA [POR_Y575_YF] | 0.916 | 0.793 | 0.448 | 1.17 | 0.506 | 0.594 | 0.536 | 0.725 | 0.544 | 1.21 | 0.443 | 0.44 | 1.15 | 0.489 | 0.763 | 0.487
TLSGIYQYSIA [FOXL2_Y81_I84S] | 0.814 | 1.83 | 1.93 | 1.24 | 2.73 | 1.98 | 0.952 | 1.03 | 8.33 | 0.899 | 4.22 | 3.56 | 0.65 | 6.7 | 1.53 | 4.21
NTADFYDLFGG [PTPN11_Y63_G60A_YF] | 0.847 | 0.785 | 0.55 | 0.993 | 0.628 | 0.591 | 0.515 | 0.608 | 1.6 | 1.12 | 4.53 | 3.02 | 1.2 | 2.3 | 0.8 | 4.45
MKGDYYCYLAE [YWHAG_Y131_R132C] | 0.789 | 0.779 | 1.36 | 3 | 5.59 | 5.89 | 11.4 | 9.01 | 1.07 | 1.5 | 2.16 | 1.48 | 5.78 | 5.47 | 1.85 | 2.49
KFLENYLNRLL [PLD2_Y169_YF] | 1.67 | 1.79 | 1.51 | 0.694 | 0.464 | 0.642 | 0.499 | 0.562 | 0.462 | 0.768 | 0.37 | 0.415 | 0.762 | 0.37 | 0.471 | 0.481
GEDLSYGDLPP [IRS1_Y151_V154L] | 0.868 | 0.788 | 0.622 | 1.3 | 0.661 | 0.664 | 0.597 | 0.786 | 0.794 | 1.34 | 0.571 | 0.564 | 1.22 | 0.543 | 0.899 | 0.582
FQASFYRRGDR [LTK_Y677_R673Q_YF] | 0.411 | 0.38 | 0.295 | 0.717 | 0.443 | 0.486 | 0.532 | 0.523 | 0.495 | 0.688 | 0.55 | 0.501 | 0.441 | 0.511 | 0.647 | 0.525
DFCDLYGGEKF [PTPN11_Y66_Y63C_YF] | 1.02 | 0.75 | 0.706 | 1.03 | 0.511 | 0.564 | 0.575 | 0.832 | 0.672 | 1.33 | 1.35 | 1.76 | 0.908 | 0.54 | 0.833 | 2.78
NYRPGYNNFYN [USH2A_Y467] | 0.875 | 0.84 | 0.614 | 0.697 | 0.616 | 0.602 | 0.637 | 0.606 | 0.711 | 0.705 | 0.567 | 0.621 | 0.651 | 0.551 | 0.514 | 0.516
VSRGRYRPQEC [B4GALT4_Y113] | 0.62 | 0.409 | 0.43 | 0.754 | 0.527 | 0.476 | 0.475 | 0.515 | 0.542 | 0.643 | 0.574 | 0.49 | 0.655 | 0.575 | 0.545 | 0.657
STKPQYQPGEN [SRC_Y530_E527K] | 0.833 | 1.09 | 0.417 | 0.575 | 0.363 | 0.36 | 0.389 | 0.412 | 0.311 | 0.579 | 0.363 | 0.361 | 0.63 | 0.395 | 0.519 | 0.396
EESREYDRLFE [PIK3R1_Y463_K459E_YF] | 0.829 | 0.473 | 6.69 | 1.46 | 0.489 | 0.681 | 0.609 | 0.762 | 0.599 | 1.49 | 0.493 | 0.657 | 1.48 | 0.546 | 1.07 | 0.654
VDSLRYIFPKL [EIF2B3_Y92_A87V_YF] | 1.01 | 1.27 | 0.752 | 0.704 | 0.449 | 0.38 | 0.486 | 0.51 | 0.463 | 0.9 | 0.372 | 0.385 | 0.822 | 0.531 | 0.85 | 0.526

Now from value to sequence, other results behind:

SH2 binding enrichment (Grb2 SH2) | SH2 binding enrichment (SHP2-C SH2) | SH2 binding enrichment (c-Src SH2) | Sequence | phosphorylation enrichment (AncSZ) | phosphorylation enrichment (EPHB1) | phosphorylation enrichment (EPHB2) | phosphorylation enrichment (FGFR1) | phosphorylation enrichment (FGFR3) | phosphorylation enrichment (Fer (mouse)) | phosphorylation enrichment (Fes) | phosphorylation enrichment (Fyn) | phosphorylation enrichment (Hck) | phosphorylation enrichment (Jak2) | phosphorylation enrichment (MERTK) | phosphorylation enrichment (c-Abl (mouse)) | phosphorylation enrichment (c-Src)
1.43 | 1.65 | 1.49 | KRELRYMHSRV [ABCD1_Y281_G277R] | 0.472 | 0.282 | 0.534 | 0.295 | 0.447 | 0.272 | 0.578 | 0.312 | 0.381 | 0.525 | 0.305 | 0.486 | 0.313
1.03 | 1.06 | 0.762 | CGQDPCIRELG [UROS_Y19_Y19C] | 0.991 | 0.44 | 0.508 | 0.581 | 0.569 | 0.458 | 0.946 | 0.468 | 0.423 | 0.821 | 0.449 | 0.644 | 0.421
0.692 | 0.461 | 0.323 | RRSQSYNPTSG [PLEKHA2_Y185_I186N] | 0.612 | 0.435 | 0.512 | 0.649 | 0.523 | 0.458 | 0.972 | 0.897 | 0.821 | 0.809 | 0.491 | 0.765 | 0.811
0.666 | 0.439 | 0.376 | NTGDDYDLFGG [PTPN11_Y63_Y62D_YF] | 1.42 | 0.586 | 0.608 | 0.546 | 0.652 | 0.623 | 1.21 | 0.722 | 0.618 | 1.05 | 0.412 | 0.826 | 1.02
0.861 | 0.814 | 0.522 | SLESAYPEGSQ [TTF1_Y357] | 0.877 | 0.463 | 0.574 | 0.61 | 0.629 | 0.457 | 0.968 | 0.539 | 0.593 | 0.712 | 0.366 | 0.601 | 0.406
0.77 | 1.37 | 0.629 | LNPVVYTLRNA [OR4C12_Y285] | 1.26 | 0.761 | 0.636 | 0.593 | 0.69 | 0.856 | 1.09 | 0.635 | 1.27 | 1.5 | 0.971 | 1.2 | 1.92
0.819 | 0.746 | 0.534 | SEDANYMRVSC [TTC3_Y1288_K1289M] | 1.03 | 2.98 | 1.42 | 0.735 | 0.742 | 0.645 | 0.958 | 0.529 | 0.563 | 0.743 | 0.455 | 0.7 | 0.468
0.756 | 0.92 | 0.543 | NRSSLYLVAGP [KIAA1614_Y1083] | 0.915 | 0.591 | 0.517 | 0.556 | 0.607 | 0.495 | 0.91 | 0.534 | 0.619 | 0.698 | 1.09 | 0.642 | 0.434
0.839 | 0.528 | 0.611 | GLPQTYCVSGP [DYSF_Y1684] | 0.978 | 0.72 | 0.667 | 0.497 | 0.655 | 0.559 | 0.978 | 0.629 | 0.631 | 0.609 | 0.605 | 0.583 | 0.524
0.819 | 0.95 | 0.592 | VDHFGYTKDDK [APOB_Y740] | 0.709 | 0.388 | 0.327 | 0.497 | 0.498 | 0.408 | 0.764 | 0.369 | 0.463 | 0.762 | 0.395 | 0.67 | 0.393
1.21 | 0.936 | 0.806 | YGIAQYCCRMG [LRRK2_Y2023] | 0.983 | 1 | 11.2 | 0.605 | 0.583 | 0.902 | 0.762 | 0.8 | 1.02 | 0.482 | 4.29 | 3.48 | 0.665
